In US20160216264A1 (WASHINGTON UNIVERSITY, published 2016):
Each block holds one binder with its values, some of them ahead of it.

What was measured:
[1] = molecular target: T1, rat myo-inositol oxygenase (Miox) (rat, UniProt Q9QXN4 1-285); experiment: Western blot of rat kidney homogenate
T1 construct: also called rat Miox; rat MIOX
T1 sequence (looked up): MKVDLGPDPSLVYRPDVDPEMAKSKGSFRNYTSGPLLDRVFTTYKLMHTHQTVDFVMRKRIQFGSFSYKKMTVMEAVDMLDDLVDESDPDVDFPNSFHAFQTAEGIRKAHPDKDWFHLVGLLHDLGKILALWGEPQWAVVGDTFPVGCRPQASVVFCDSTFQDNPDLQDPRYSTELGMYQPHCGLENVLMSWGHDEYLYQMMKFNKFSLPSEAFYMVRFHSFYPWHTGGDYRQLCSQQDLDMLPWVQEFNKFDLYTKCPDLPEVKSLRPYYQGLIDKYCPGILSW
Protocol: (§1) The cross-species immunoreactivity of the anti-MIOX monoclonal antibodies was investigated (FIG. 3D,E). Human, mouse, and rat kidney homogenates were separately probed with both monoclonal anti-MIOX antibodies.
(§2) Normal human kidney homogenate was purchased from G-Biosciences (NLH-04, G-Biosciences). Mouse and rat kidney homogenate was purchased from G-Biosciences, St. Louis, Mo. Western blotting was performed as previously described (Laterza O F, et al. Clin Chem 2006; 52:1713-1721). Blots were probed with 0.004 mg/mL of the rabbit polyclonal anti-MIOX antibody R9544 or 0.004 mg/mL of either the 01D10 or 12H06 mouse anti-MIOX monoclonal antibody. Where indicated, both monoclonal antibodies were used simultaneously, each at the above concentrations.

[2] = molecular target: T2, peptide 1 (synthetic peptide corresponding to the epitope for mAb 01D10) (human); experiment: peptide preincubation, then immunoblot
T2 peptide: PSLVYRPDVDPEV
Protocol: (§3) FIG. 4A and FIG. 4B depict images of immunoblots showing confirmation of specific antibody epitopes by blocking mAb binding to endogenous MIOX. (FIG. 4A) The peptides corresponding to the epitopes for mAb 01D10 (peptide 1) and mAb 12H06 (peptide 2) were synthesized. mAb 01D10 was pre-incubated for one hour with buffer alone, 100 μg/ml peptide 1, or 100 μg/ml peptide 2. (FIG. 4B) Western inhibition of mAb 12H06 using either peptide 1 or peptide 2.
(§4) The linear epitopes of the anti-MIOX antibodies were determined by use of spot-peptide membrane arrays containing the full length amino acid sequence of MIOX. The two mouse monoclonal antibodies mapped to opposite ends of the MIOX sequence (FIG. 3B). The antibody designated 01D10 mapped to the N-terminal sequence of MIOX (FIG. 3C). The peptide spots were decoded to reveal the sequence P9-V21. The mouse monoclonal antibody designated 12H06 mapped to the C-terminal region of MIOX (FIG. 3C). The peptide spots were decoded to reveal the epitope sequence R268-C279. […] The peptide epitope recognized by the 12H06 mouse monoclonal antibody was 100% identical to the corresponding mouse and rat Miox peptide sequence. The peptide epitope recognized by the 01D10 mouse monoclonal antibody was 92% identical to the corresponding mouse and rat Miox peptide sequence. […]

[3] = molecular target: T3, mouse myo-inositol oxygenase (Miox) (mouse, UniProt Q9QXN5 1-285); experiment: Western blot of mouse kidney homogenate
T3 construct: also called mouse Miox; mouse MIOX
T3 sequence (looked up): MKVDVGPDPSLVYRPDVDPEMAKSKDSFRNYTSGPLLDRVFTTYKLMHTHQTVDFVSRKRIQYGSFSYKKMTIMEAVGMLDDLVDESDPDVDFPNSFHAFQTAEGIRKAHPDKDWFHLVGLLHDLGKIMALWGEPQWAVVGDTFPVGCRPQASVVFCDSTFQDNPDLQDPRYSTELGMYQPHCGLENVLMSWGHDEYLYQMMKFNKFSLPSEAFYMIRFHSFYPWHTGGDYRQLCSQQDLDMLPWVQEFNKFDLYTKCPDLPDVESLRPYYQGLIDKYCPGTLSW
Protocol: as §1, §2

[4] = molecular target: T4, peptide 2 (synthetic peptide corresponding to the epitope for mAb 12H06) (human); experiment: peptide preincubation (one hour), then immunoblot
T4 peptide: RPYYQGLIDKYC
Protocol: as §3, §4

- binding result [1]: binds
- binding result [2]: no binding (tested: 100 µg/ml)
- binding result [3]: binds
B1: mouse monoclonal anti-MIOX antibody 12H06 (antibody, IgG2b, V domains shown)
VH: QVQLQQPGAELVRPGTSVKLSCKASGYTFTSYWMHWVKQRPGQGLEWIGLIDPSDSYTNYNQKFKGKATLTVDTSSSTASMQLSSLTSEDSAVYYCVRTYYHSSYFFAYWGQGTLVTVSS
VL: DIVVTQSPASFAVSLGQRATISCRASKSVSTSGYSYINWYQQKPGQPPKLLIYLASNLESGVPARFSGSGSGTDFTLNIHPVEEEDAATYYCQHSRELPLTFGAGTRLELK
notes: the VH entry runs a few residues into CH1; also called mAb 12H06

- binding result [4]: no binding (tested: 100 µg/ml)
B2: mouse monoclonal anti-MIOX antibody 01D10 (antibody, IgG2b, V domains shown)
VH: QVQLQQSGPELVKPGASVKISCKASGYSFTSYYIHWVKQRPGQGLEWIGWIYPGSGNSKYNEKFKGKATLTADTSSSTAYMQLSSLTSEDSAVYYCARDGSTYNWNFDVWGTGTTVTVSS
VL: DIQMTQSPASLSASVGETVTITCRTSGNIHNYLAWYQQKQGKSPQLLVYNAKTLADGVPSRFSGSGSGTQYSLKINSLQPEDFGSYYCQHFWSIPFTFGSGTKLEIKR
notes: they run a few residues into the constant regions; Biotinylated when used as capping antibody in the sandwich immunoassay; also called mAb 01D10
